In the test the target is pICln (UniProt P54105 1-237). Kind of test: pull-down.

B1: GST-PRMT5reg (domain or fragment)
chain: MAAMAVGGAGGSRVSSGRDLNCVPEIADTLGAVAKQGFDFLCMPVFHPRFKREFIQEPAKNRPGPQTRSDLLLSGRDWNTLIVGKLSPWIRPDSKVEKIRRNSEAAMLQELNFGAYLGLPAFLLPLNQEDNTNLARVLTNHIHTGHHSSMFWMRVPLVAPEDLRDDIIENAPTTHTEEYSGEEKTWMWWHNFRTLCDYSKRIAVALEIGADLPSNHVIDRWLGEPIKAAILPTSIFLTNKKGFPVLSKMHQRLIFRLLKLEVQFIITGTNHHSEKEFCSYLQYLEYLSQN
Turning to B1, the binding result is on record as “binds”.

The values are drawn from PMC2755859 (The Journal of Biological Chemistry, 2009).
